In the supplement of paper PMC11246515:
± gives the standard deviation of the averaged measurements.

Test: total protein half-life in vivo (active degradation + dilution); higher = more stable protein
[1] = E. coli NCM3722 delta-clpP delta-lon delta-hslV, growth: N-lim chemostat, doubling time 6 h
[2] = wild type E. coli NCM3722, growth: C-lim chemostat, doubling time 6 h
[3] = wild type E. coli NCM3722, growth: C-lim chemostat, doubling time 12 h
[4] = wild type E. coli NCM3722, growth: N-lim chemostat, doubling time 6 h
[5] = E. coli NCM3722 delta-clpP, growth: N-lim chemostat, doubling time 6 h
[6] = E. coli NCM3722 delta-hslV, growth: N-lim chemostat, doubling time 6 h
[7] = E. coli NCM3722 delta-smpB, growth: N-lim chemostat, doubling time 6 h
[8] = wild type E. coli NCM3722, growth: C-lim chemostat, doubling time 3 h
[9] = wild type E. coli NCM3722, growth: P-lim chemostat, doubling time 6 h
[10] = wild type E. coli NCM3722, growth: P-lim chemostat, doubling time 12 h
[11] = E. coli NCM3722 delta-lon, growth: N-lim chemostat, doubling time 6 h
[12] = wild type E. coli NCM3722, growth: N-lim chemostat, doubling time 12 h

| Sequence | total protein half-life in vivo [1] | total protein half-life in vivo [2] | total protein half-life in vivo [3] | total protein half-life in vivo [4] | total protein half-life in vivo [5] | total protein half-life in vivo [6] | total protein half-life in vivo [7] | total protein half-life in vivo [8] | total protein half-life in vivo [9] | total protein half-life in vivo [10] | total protein half-life in vivo [11] | total protein half-life in vivo [12] |
| --- | --- | --- | --- | --- | --- | --- | --- | --- | --- | --- | --- | --- |
| MSLHSPGKAFRAALTKENPLQIVGTINANHALLAQRAGYQAIYLSGGGVAAGSLGLPDLGISTLDDVLTDIRRITDVCSLPLLVDADIGFGSSAFNVARTVKSMIKAGAAGLHIEDQVGAKRCGHRPNKAIVSKEEMVDRIRAAVDAKTDPDFVIMARTDALAVEGLDAAIERAQAYVEAGAEMLFPEAITELAMYRQFADAVQVPILANITEFGATPLFTTDELRSAHVAMALYPLSAFRAMNRAAEHVYNVLRQEGTQKSVIDTMQTRNELYESINYYQYEEKLDNLFARSQVK | 3.59 ± 0.66 h | 4.13 ± 0.31 h | 5.82 ± 0.58 h | 4.7 h | – | – | – | – | – | – | – | – |
| MKISLVVPVFNEEEAIPIFYKTVREFEELKSYEVEIVFINDGSKDATESIINALAVSDPLVVPLSFTRNFGKEPALFAGLDHATGDAIIPIDVDLQDPIEVIPHLIEKWQAGADMVLAKRSDRSTDGRLKRKTAEWFYKLHNKISNPKIEENVGDFRLMSRDVVENIKLMPERNLFMKGILSWVGGKTDIVEYVRAERIAGDTKFNGWKLWNLALEGITSFSTFPLRIWTYIGLVVASVAFIYGAWMILDTIIFGNAVRGYPSLLVSILFLGGIQMIGIGVLGEYIGRTYIETKKRPKYIIKRVKK | 6.26 ± 0.44 h | 6.05 ± 0.38 h | – | 6.19 ± 0.16 h | 6.88 ± 1.2 h | 7.42 ± 0.82 h | 6.23 ± 0.34 h | 3.54 ± 0.22 h | 6.08 ± 0.13 h | 13.7 ± 0.2 h | – | – |
| MNFQQLKIIREAARQDYNLTEVANMLFTSQSGVSRHIRELEDELGIEIFVRRGKRLLGMTEPGKALLVIAERILNEASNVRRLADLFTNDTSGVLTIATTHTQARYSLPEVIKAFRELFPEVRLELIQGTPQEIATLLQNGEADIGIASERLSNDPQLVAFPWFRWHHSLLVPHDHPLTQISPLTLESIAKWPLITYRQGITGRSRIDDAFARKGLLADIVLSAQDSDVIKTYVALGLGIGLVAEQSSGEQEEENLIRLDTRHLFDANTVWLGLKRGQLQRNYVWRFLELCNAGLSVEDIKRQVMESSEEEIDYQI | 6.2 ± 1.1 h | 1.156 ± 0.01 h | 1.86 h | 1.04 ± 0.049 h | 2.47 ± 0.054 h | 0.454 h | 0.654 h | 1.18 ± 0.11 h | 2.33 ± 0.71 h | 4.48 ± 0.47 h | 0.652 h | 1.02 h |
| MNNHATVQSSAPVSAAPLLQVSGALIAIIALILAAAWLVKRLGFAPKRTGVNGLKISASASLGARERVVVVDVEDARLVLGVTAGQINLLHKLPPSAPTEEIPQTDFQSVMKNLLKRSGRS | > 8 h | – | 8.29 h | – | – | – | – | > 4 h | – | – | – | 1.64 h |
| MPRSTWFKALLLLVALWAPLSQAETGWQPIQETIRKSDKDNRQYQAIRLDNGMVVLLVSDPQAVKSLSALVVPVGSLEDPEAYQGLAHYLEHMSLMGSKKYPQADSLAEYLKMHGGSHNASTAPYRTAFYLEVENDALPGAVDRLADAIAEPLLDKKYAERERNAVNAELTMARTRDGMRMAQVSAETINPAHPGSKFSGGNLETLSDKPGNPVQQALKDFHEKYYSANLMKAVIYSNKPLPELAKMAADTFGRVPNKESKKPEITVPVVTDAQKGIIIHYVPALPRKVLRVEFRIDNNSAKFRSKTDELITYLIGNRSPGTLSDWLQKQGLVEGISANSDPIVNGNSGVLAISASLTDKGLANRDQVVAAIFSYLNLLREKGIDKQYFDELANVLDIDFRYPSITRDMDYVEWLADTMIRVPVEHTLDAVNIADRYDAKAVKERLAMMTPQNARIWYISPKEPHNKTAYFVDAPYQVDKISAQTFADWQKKAADIALSLPELNPYIPDDFSLIKSEKKYDHPELIVDESNLRVVYAPSRYFASEPKADVSLILRNPKAMDSARNQVMFALNDYLAGLALDQLSNQASVGGISFSTNANNGLMVNANGYTQRLPQLFQALLEGYFSYTATEDQLEQAKSWYNQMMDSAEKGKAFEQAIMPAQMLSQVPYFSRDERRKILPSITLKEVLAYRDALKSGARPEFMVIGNMTEAQATTLARDVQKQLGADGSEWCRNKDVVVDKKQSVIFEKAGNSTDSALAAVFVPTGYDEYTSSAYSSLLGQIVQPWFYNQLRTEEQLGYAVFAFPMSVGRQWGMGFLLQSNDKQPSFLWERYKAFFPTAEAKLRAMKPDEFAQIQQAVITQMLQAPQTLGEEASKLSKDFDRGNMRFDSRDKIVAQIKLLTPQKLADFFHQAVVEPQGMAILSQISGSQNGKAEYVHPEGWKVWENVSALQQTMPLMSEKNE | 6.72 ± 0.29 h | 5.91 ± 0.59 h | 11.5 ± 0.5 h | 6.17 ± 0.092 h | 6.24 ± 0.52 h | 5.96 ± 0.35 h | 5.53 ± 0.073 h | 3.05 ± 0.33 h | 5.28 ± 0.059 h | 11.1 ± 0.72 h | 6.46 ± 0.14 h | 11.7 ± 0.35 h |
| MNPIAVTLLTGFLGAGKTTLLRHILNEQHGYKIAVIENEFGEVSVDDQLIGDRATQIKTLTNGCICCSRSNELEDALLDLLDNLDKGNIQFDRLVIECTGMADPGPIIQTFFSHEVLCQRYLLDGVIALVDAVHADEQMNQFTIAQSQVGYADRILLTKTDVAGEAEKLHERLARINARAPVYTVTHGDIDLGLLFNTNGFMLEENVVSTKPRFHFIADKQNDISSIVVELDYPVDISEVSRVMENLLLESADKLLRYKGMLWIDGEPNRLLFQGVQRLYSADWDRPWGDEKPHSTMVFIGIQLPEEEIRAAFAGLRK | 5.11 ± 1.4 h | 5.139 ± 0.017 h | 8.715 ± 0.082 h | 3.52 ± 0.3 h | 3.49 ± 0.12 h | 3.471 ± 0.032 h | 3.65 ± 0.28 h | 2.876 ± 0.022 h | 4.95 ± 0.4 h | 10 ± 0.33 h | 3.97 ± 0.38 h | 6.14 ± 0.095 h |
| MDKFRVQGPTKLQGEVTISGAKNAALPILFAALLAEEPVEIQNVPKLKDVDTSMKLLSQLGAKVERNGSVHIDARDVNVFCAPYDLVKTMRASIWALGPLVARFGQGQVSLPGGCTIGARPVDLHISGLEQLGATIKLEEGYVKASVDGRLKGAHIVMDKVSVGATVTIMCAATLAEGTTIIENAAREPEIVDTANFLITLGAKISGQGTDRIVIEGVERLGGGVYRVLPDRIETGTFLVAAAISRGKIICRNAQPDTLDAVLAKLRDAGADIEVGEDWISLDMHGKRPKAVNVRTAPHPAFPTDMQAQFTLLNLVAEGTGFITETVFENRFMHVPELSRMGAHAEIESNTVICHGVEKLSGAQVMATDLRASASLVLAGCIAEGTTVVDRIYHIDRGYERIEDKLRALGANIERVKGE [P0A749] | 4.88 ± 0.64 h | 6.05 ± 1.2 h | 9.85 ± 0.48 h | 3.47 ± 0.084 h | 3.91 ± 0.28 h | 3.48 ± 0.22 h | 3.39 ± 0.23 h | 2.92 ± 0.043 h | 5.53 ± 0.1 h | 10.9 ± 0.56 h | 4.25 ± 0.55 h | 5.28 ± 0.25 h |
| MLKVLLLFVLLIAGIVVGPMIAGHQGYVLIQTDNYNIETSVTGLAIILILAMVVLFAIEWLLRRIFRTGAHTRGWFVGRKRRRARKQTEQALLKLAEGDYQQVEKLMAKNADHAEQPVVNYLLAAEAAQQRGDEARANQHLERAAELAGNDTIPVEITRVRLQLARNENHAARHGVDKLLEVTPRHPEVLRLAEQAYIRTGAWSSLLDIIPSMAKAHVGDEEHRAMLEQQAWIGLMDQARADNGSEGLRNWWKNQSRKTRHQVALQVAMAEHLIECDDHDTAQQIIIDGLKRQYDDRLLLPIPRLKTNNPEQLEKVLRQQIKNVGDRPLLWSTLGQSLMKHGEWQEASLAFRAALKQRPDAYDYAWLADALDRLHKPEEAAAMRRDGLMLTLQNNPPQ [P0ACB7] | 5.91 ± 0.1 h | 6.13 ± 0.2 h | 13.2 ± 0.85 h | 6.64 ± 0.65 h | 6.4161 ± 0.0029 h | – | 5.98 ± 0.073 h | 3.13 ± 0.12 h | 6.1 ± 0.41 h | 12.6 ± 0.95 h | 6.1592 ± 0.004 h | 12.6 ± 0.5 h |
| MSTVTITDLARENVRNLTPYQSARRLGGNGDVWLNANEYPTAVEFQLTQQTLNRYPECQPKAVIENYAQYAGVKPEQVLVSRGADEGIELLIRAFCEPGKDAILYCPPTYGMYSVSAETIGVECRTVPTLDNWQLDLQGISDKLDGVKVVYVCSPNNPTGQLINPQDFRTLLELTRGKAIVVADEAYIEFCPQASLAGWLAEYPHLAILRTLSKAFALAGLRCGFTLANEEVINLLMKVIAPYPLSTPVADIAAQALSPQGIVAMRERVAQIIAEREYLIAALKEIPCVEQVFDSETNYILARFKASSAVFKSLWDQGIILRDQNKQPSLSGCLRITVGTREESQRVIDALRAEQV | 3.92 ± 0.55 h | 5.38 ± 0.12 h | 9.87 ± 1.3 h | 3.247 ± 0.012 h | 3.15 ± 0.066 h | 3.41 ± 0.045 h | 3.535 ± 0.032 h | 3.02 ± 0.27 h | 5.32 ± 0.39 h | 10.9 ± 0.23 h | 3.73 ± 0.54 h | 4.98 ± 0.15 h |
| MKKIALIIGSMIAGGIISAAGFTWVAKAEPPAEKTSTAERKILFWYDPMYPNTRFDKPGKSPFMDMDLVPKYADEESSASGVRIDPTQTQNLGVKTATVTRGPLTFAQSFPANVSYNEYQYAIVQARAAGFIDKVYPLTVGDKVQKGTPLLDLTIPDWVEAQSEYLLLRETGGTATQTEGILERLRLAGMPEADIRRLIATQKIQTRFTLKAPIDGVITAFDLRAGMNIAKDNVVAKIQGMDPVWVTAAIPESIAWLVKDASQFTLTVPARPDKTLTIRKWTLLPGVDAATRTLQLRLEVDNADEALKPGMNAWLQLNTASEPMLLIPSQALIDTGSEQRVITVDADGRFVPKRVAVFQASQGVTALRSGLAEGEKVVSSGLFLIDSEANISGALERMRSESATHAH | 2.95 h | 5.79 h | > 16 h | 5.73 ± 0.53 h | 4.8 h | 5.69 ± 0.66 h | 4.32 ± 1.3 h | > 4 h | 5.52 ± 0.11 h | 10.7 ± 0.35 h | 4.62 h | 10.2 ± 0.68 h |
